The target in this experiment is cdc37_human CDC37 (UniProt Q16543).
Sequence of cdc37_human CDC37 (Q16543 whole entry): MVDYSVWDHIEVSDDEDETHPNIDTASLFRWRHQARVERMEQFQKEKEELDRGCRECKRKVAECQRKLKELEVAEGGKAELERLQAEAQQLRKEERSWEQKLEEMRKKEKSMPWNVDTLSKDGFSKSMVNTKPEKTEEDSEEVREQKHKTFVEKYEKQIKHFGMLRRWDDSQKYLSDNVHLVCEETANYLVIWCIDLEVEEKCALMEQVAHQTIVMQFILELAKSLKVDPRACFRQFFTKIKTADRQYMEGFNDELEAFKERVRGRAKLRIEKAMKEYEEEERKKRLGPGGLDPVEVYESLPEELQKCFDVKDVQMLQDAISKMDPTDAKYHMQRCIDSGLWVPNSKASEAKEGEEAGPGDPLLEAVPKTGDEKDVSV

As to “Leucine-rich repeat serine/threonine-protein kinase 2 (Homo sapiens), Q5S007 G2385R”, the “effect of a mutation on the interaction” value is reported as “increasing interaction”.
